The target in the assay is T1, HER3 (human, UniProt P21860 20-1342).
T1 construct: whole, on cells; Endogenous receptor on tumour cell lines; also called ErbB3; Human ErbB3/HER3
The experiment in a line: confocal immunofluorescence, SK-MEL-2 cells treated with HerPBK10-GFPD10 nanoparticles, 0 minutes.

T1 sequence (P21860 20-1342): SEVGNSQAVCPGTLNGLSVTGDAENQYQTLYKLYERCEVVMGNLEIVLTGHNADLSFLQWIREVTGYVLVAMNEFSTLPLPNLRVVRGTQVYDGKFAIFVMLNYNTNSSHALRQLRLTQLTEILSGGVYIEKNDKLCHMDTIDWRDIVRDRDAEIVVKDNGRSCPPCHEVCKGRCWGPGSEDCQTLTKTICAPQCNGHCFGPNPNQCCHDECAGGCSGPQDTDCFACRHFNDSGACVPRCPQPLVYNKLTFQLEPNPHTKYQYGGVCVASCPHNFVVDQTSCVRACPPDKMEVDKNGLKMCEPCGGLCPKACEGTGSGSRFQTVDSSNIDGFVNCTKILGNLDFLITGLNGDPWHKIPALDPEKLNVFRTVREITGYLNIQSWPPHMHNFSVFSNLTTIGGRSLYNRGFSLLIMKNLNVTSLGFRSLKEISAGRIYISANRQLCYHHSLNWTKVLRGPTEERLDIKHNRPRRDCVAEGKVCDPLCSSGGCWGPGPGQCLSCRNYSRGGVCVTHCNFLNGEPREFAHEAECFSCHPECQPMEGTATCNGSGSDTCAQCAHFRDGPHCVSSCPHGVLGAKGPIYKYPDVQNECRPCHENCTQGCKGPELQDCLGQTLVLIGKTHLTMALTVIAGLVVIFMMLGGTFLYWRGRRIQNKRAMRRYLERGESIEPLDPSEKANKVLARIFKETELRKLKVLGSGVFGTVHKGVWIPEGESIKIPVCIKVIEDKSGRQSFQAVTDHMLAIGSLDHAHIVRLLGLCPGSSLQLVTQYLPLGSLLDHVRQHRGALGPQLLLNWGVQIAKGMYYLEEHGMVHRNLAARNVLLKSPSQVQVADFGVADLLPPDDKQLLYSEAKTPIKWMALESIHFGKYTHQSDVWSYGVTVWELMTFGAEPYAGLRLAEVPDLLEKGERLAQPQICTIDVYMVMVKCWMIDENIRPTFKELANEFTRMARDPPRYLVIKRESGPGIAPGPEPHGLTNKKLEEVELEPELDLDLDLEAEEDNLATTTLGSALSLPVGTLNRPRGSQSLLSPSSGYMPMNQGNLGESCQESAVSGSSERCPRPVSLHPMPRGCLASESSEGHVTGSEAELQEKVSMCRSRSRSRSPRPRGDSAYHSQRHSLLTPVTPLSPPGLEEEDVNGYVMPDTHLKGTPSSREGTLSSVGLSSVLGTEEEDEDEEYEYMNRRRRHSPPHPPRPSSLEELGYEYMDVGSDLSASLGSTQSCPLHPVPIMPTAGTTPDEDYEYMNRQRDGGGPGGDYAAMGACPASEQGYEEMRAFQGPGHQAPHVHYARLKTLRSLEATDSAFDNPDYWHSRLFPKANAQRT
Protocol: The cells were counterstained using DAPI to stain the nucleus and rhodamine phalloidin to stain actin.
Images were taken after 0, 15, 30, 60, and 120 minutes using confocal microscopy.

B1: HerPBK10 carrier polypeptide comprising a Her cell-targeting segment, a penton base (PB) segment, a decalysine (K10) binding segment, and an N-terminal … (other)
chain: MRGSHHHHHHGMASMTGGQQMGRDLYDDDDKDRWGSELLPPQLKEMKSQESAAGSKLVLRCETSSEYSSLRFKWFKNGNELNRKNKPQNIKIQKKPGKSELRINKASLADSGEYMCKVISKLGNDSASANIAIVESNEIITGMPASTEGAYVSSESPIRISVSTEGANTSSSTSTSTTGTSHLVKCAEKEKTFCVNGGECFMVKDLSNPSRYLCKCQPGFTGARCTENVPMKVQNQEKAEELYGGSGGSRSMRRAAMYEEGPPPSYESVVSAAPVAAALGSPFDAPLDPPFVPPRYLRPTGGRNSIRYSELAPLFDTTRVYLVDNKSTDVASLNYQNDHSNFLTTVIQNNDYSPGEASTQTINLDDRSHWGGDLKTILHTNMPNVNEFMFTNKFKARVMVSRLPTKDNQVELKYEWVEFTLPEGNYSETMTIDLMNNAIVEHYLKVGRQNGVLESDIGVKFDTRNFRLGFDPVTGLVMPGVYTNEAFHPDIILLPGCGVDFTHSRLSNLLGIRKRQPFQEGFRITYDDLEGGNIPALLDVDAYQASLKDDTEQGGGGAGGSNSSGSGAEENSNAAAAAMQPVEDMNDHAIRGDTFATRAEEKRAEAEAAAEAAAPAAQPEVEKPQKKPVIKPLTEDSKKRSYNLISNDSTFTQYRSWYLAYNYGDPQTGIRSWTLLCTPDVTCGSEQVYWSLPDMMQDPVTFRSTRQISNFPVVGAELLPVHSKSFYNDQAVYSQLIRQFTSLTHVFNRFPENQILARPPAPTITTVSENVPALTDHGTLPLRNSIGGVQRVTITDARRRTCPYVYKALGIVSPRVLSSRTFKKKKKKKKKK
As for B1, the binding result is given as “binds”.
